Consider 132 substances from the supplement of paper PMC12042874.

± gives the uncertainty stated by the source.

A short description of the data set: amyloid nucleation score (Sup35N fusion, yeast selection) (log enrichment); library NNK3; higher = more nucleation; inactive = no reads after selection. In outline: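 Growth for 7 days at 30°C on medium lacking adenine and uracil followed a 24-hour induction with 100 μM copper sulfate of psi-negative yeast expressing peptides of 20 random codons fused to Sup35N. Input and output plasmid inserts were sequenced with Illumina, and sequences with under 100 input reads were excluded. Nucleation score is the DiMSum log enrichment of output over input reads, centred on the mode score of non-aggregating sequences.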

Regarding DALIRY, the amyloid nucleation score result was “inactive”. As for GFEAPWA, the entry is “inactive”.

Take LFCVLP: the amyloid nucleation score entry was “inactive”. As for PDGTILMCGRPMCYIVYGAK, the entry is “inactive”; as for MIIPFLLLTMLITKSWLLIW, “inactive”.

Regarding RYRSVNVYWIAVLRTWSAVI, the amyloid nucleation score result is “inactive”.

In the case of GILFYTHGRKDASD, the amyloid nucleation score was -0.348 ± 0.5. As for TRMRTCSKRY, the entry is “inactive”; as for MLPFTLMQPNVLFWMIDWED, “inactive”. Consider VVYIRWYIRLLRHNIVSILS, for which the amyloid nucleation score result is “inactive”. With IEFMCLHGKVTLITIVF the entry was “inactive”.

With VDSILAMGRGAYVID, the amyloid nucleation score entry was “inactive”. With MSELWWAPSFKYQLFSHFIK the entry was “inactive”; with GMRFCVNVVCMRSLPSCAMK, 1.43 ± 0.095. With VLCHKSKWNMH the figure was 0.322 ± 0.26; with FVCRNLTFPMGHQSIMSMWD, -0.117 ± 0.75. As for ITCCM, the entry is “inactive”. As for LLFSLHCCCKSTYFFKSFLN, the amyloid nucleation score entry was “inactive”. As for CFQQVHN, the entry is “inactive”; as for FMYNLVVSGSVHSKVDRYSC, 0.629 ± 0.16. As for IIYPAMTHFLSYMYRVNCVS, the entry is “inactive”; as for IFYVLSTMNDSIVV, “inactive”. With LHITYGSFCTLVFLIIVRWF the entry was “inactive”; with QMCTQLSIMI, “inactive”.

As for MIGFYLILVGSHIRMYTGS, the amyloid nucleation score entry is “inactive”. With RALTLADASGMRGINSGTMK the entry was “inactive”; with LSESYDRQRFKSTF, 0.694 ± 0.21. With EHSNNFTHNYVFWIGIGLAC the entry was “inactive”. Take GDHYGVEYSHPL: the amyloid nucleation score result was “inactive”. With IYPLAKFSLHLVYTDRVSIF the figure was 0.352 ± 0.19; with IDTTQVLGMNS, “inactive”; with ISKLVY, “inactive”.

Turning to LTLISGIAFLCLLLDNHNTV, the amyloid nucleation score entry is “inactive”.

As for RSCVLMVASVSNRNRPGDVS, the amyloid nucleation score result was “inactive”. With MLDSRYGKMCRGEW the entry was “inactive”. As for RKRAGVMGTLSN, the entry is “inactive”. RIDIGY gave an amyloid nucleation score of 0.612 ± 0.17. Regarding EKFTMLARSKAAICLVDKSC, the amyloid nucleation score is -0.463 ± 0.93. As for LLFDDKCYGLVVDNYRYANI, the entry is “inactive”; as for LFQIM, “inactive”. With VKDGTLCWCRAPFRCCRMPI the figure was -0.426 ± 1.1; with YPMRCTCMDGGNSWDLM, 0.177 ± 0.27; with RVTCLFFNPRRTTNYSSSVG, 1.1 ± 0.11. On to MPGLAVFGCPRRCCGFRGLV, for which the amyloid nucleation score entry is “inactive”. As for FSCSDLWGRSTLDKGYSFFR, the entry is “inactive”; as for CNGFTVGWPWGRRLRDPPGH, -0.598 ± 2.4.

Turning to IGCEQDADNYNRSWWIWMKF, the amyloid nucleation score entry was “inactive”.

SPPKAAKCICAISSWSLWWT: the amyloid nucleation score entry was “inactive”.

In turn, QIFLVKPMSDFSCNSSRYTL displayed an amyloid nucleation score of -0.423 ± 0.76. With NVYIVSIRMFCDYRVTAPKT the figure was 2.35 ± 0.068; with LYMGSRPFSVIVVRITVGSQ, “inactive”; with SHLDGYICYCPLLKRWIDYR, -0.035 ± 0.59. With WWAVTKFTAFYMRVIYKIGR the entry was “inactive”. As for ANVLFEVSACLAKGIVKVRR, the entry is “inactive”; as for LVNEKNIRVEVCIAYACQDS, -0.053 ± 0.33.

Take VLLPPGVE: the amyloid nucleation score was -0.23 ± 0.98.

Take TGLLYFRFDCGSSIIRSRYY: the amyloid nucleation score amounted to 0.875 ± 0.1.

Consider KTFCVVDTR, for which the amyloid nucleation score entry is “inactive”.

VVSTNVYGGLTMASYCGALP showed an amyloid nucleation score of 1.24 ± 0.16. With VLLLTMEFGASDVFCWVVKY, the amyloid nucleation score result was “inactive”. With LGGLYLLIFLRSGPRRWSGT the entry was “inactive”; with LVPFLVDIHVGWDISLKVVR, “inactive”; with KMVGVKK, “inactive”. With LSFYISPS the figure was 0.748 ± 0.1; with VYVFAQ, “inactive”; with FDGYCFFYYWLGVWWSTSI, “inactive”. SCTLYAHALCPEQISPQFLH: the amyloid nucleation score result was “inactive”. Regarding SNNLKLAPGSWVPYSDRIHR, the amyloid nucleation score result is “inactive”. As for GFYVRRGCLWGGYNHVFAIF, the amyloid nucleation score entry was “inactive”. On to IYPLV, for which the amyloid nucleation score result is “inactive”. With SWFSVMGNVFRMHFERRYSV the entry was “inactive”; with MTDDRWLRRRVSPCSVRRFS, “inactive”; with HELDSTTLCVFKPFPFHANL, “inactive”. As for KKVNDML, the entry is “inactive”; as for HLRFFLRVVGRTFIFCHS, “inactive”; as for YSTRVVRSTPWSKCSSPDME, “inactive”. As for VSSMGSV, the amyloid nucleation score entry was “inactive”. With CERKQVYNDRRINS the entry was “inactive”; with LAFCIMNRQFLPLYLPTCSV, “inactive”; with LLEQMQGFRLIQSGVHNTLM, “inactive”. With LIALNYVWYTAQ, the amyloid nucleation score entry was “inactive”. With IKLARSAYQLSSVNMRVKVI the entry was “inactive”; with MMLFNVPKICHRLWLNLHRH, “inactive”.

On to RVFGLMYSQREMCTWSVRNR, for which the amyloid nucleation score is 0.446 ± 0.13. Consider CSYILVFSNSFFFHAHSTWV, for which the amyloid nucleation score entry is “inactive”. Consider NIVERQDLLLGLANNWLHLT, for which the amyloid nucleation score result was “inactive”. With FFNIMCYRHWLKVKLYYIVK the figure was 1.9 ± 0.06; with NGFRI, “inactive”; with SVFKIV, “inactive”.

As for NRRWILRRLLPSVNLSE, the amyloid nucleation score result is “inactive”. As for EHYVDCVGDVAVRDVLVGAS, the entry is “inactive”; as for LMSAFSIRRGYCCVENSASR, “inactive”; as for TKGFTSLSTIFFKVNKFD, “inactive”. With RRTRYDS the entry was “inactive”. As to CPYLLNVIMWAIFRSANFVA, the amyloid nucleation score entry was “inactive”. As for FSTMKLISMHCRVS, the entry is “inactive”; as for WAVYVGVL, “inactive”. As for CRGYADFT, the entry is “inactive”. Turning to FFWKILALPSE, the amyloid nucleation score result is “inactive”. With LYDDVSTVWNKKTEVGQLLN, the amyloid nucleation score entry was “inactive”. As for FFLGVSDSMKFLYLMPTEFD, the entry is “inactive”. Turning to VICIKEEEG, the amyloid nucleation score entry was “inactive”. As for HRTTWLIWPLS, the entry is “inactive”; as for VRSRLGSGRDEKPRALSSCM, “inactive”; as for CQNLATRSFKALPLRSLCTC, “inactive”. As for SIFIMHGRMKF, the figure is 1.47 ± 0.072. With CNFQYILCRIM the figure was 2.15 ± 0.057; with SFSFVDLGIHYLMCNDSKIT, “inactive”.

Substance VNSLVSRQINFIEVRRSMRW registered an amyloid nucleation score of 0.849 ± 0.23. As for GLDLRTCGCYHSIP, the entry is “inactive”; as for TFSISSGSASYCVSSVDSS, “inactive”; as for TADYDYQAEVCCLVIMCVHN, “inactive”. As to IPYKHIHRMPFFYHWQQRFG, the amyloid nucleation score entry was “inactive”. With WFMVIAVCMSAFESKLARFH the entry was “inactive”; with RIFFGISVIQFLIRSYSVHR, “inactive”; with MRSNMFSRAGNYGQSIKELT, “inactive”. Consider EGSDIA, for which the amyloid nucleation score result is “inactive”. As for YVSTHLSVYTKSFRDMIAPG, the entry is “inactive”; as for VLLMRNAVIYPGSGMSSSSA, “inactive”. FICHYEHKKVRHRVYAKAYI: the amyloid nucleation score result was “inactive”. In the case of FWFLLWKRKDTLWAFR, the amyloid nucleation score entry is “inactive”. Regarding AYVFVYESYAWGNLRQ, the amyloid nucleation score result was “inactive”.

As for SGTGNGKIPMDRSVSDCVRE, the amyloid nucleation score was 0.035 ± 0.37. As for YRLISCLVFISGRFSN, the entry is “inactive”; as for RELNQFSPRAENWWYSSHSV, “inactive”; as for TYFMRPSNYHVLSLGAG, “inactive”. With YRPVQSVQIVHLLSILILVW, the amyloid nucleation score result is “inactive”.

As for KRLIVVIFKQWPARGCTTHC, the amyloid nucleation score entry is “inactive”.

SSNVPFVWCIPLMIAGIVGH showed an amyloid nucleation score of -0.348 ± 0.75. As for SFYGHVHMDTCCN, the entry is “inactive”. As for GVTLGQLR, the figure is 1.42 ± 0.15; as for RSRKVNWCSLFVVVSHVGWK, “inactive”.
